In paper PMC10720262 (2023) one finds binding score data, which are given here for 25 molecules.

Numbering of substitutions follows the chain as printed.

The target of the test is PfCSP full length (Plasmodium falciparum (isolate NF54), UniProt P19597). Kind of test: ELISA AUC. Background: An ELISA detects its analyte on a solid surface through an enzyme-linked reagent.
Chain of PfCSP full length (P19597 20-375): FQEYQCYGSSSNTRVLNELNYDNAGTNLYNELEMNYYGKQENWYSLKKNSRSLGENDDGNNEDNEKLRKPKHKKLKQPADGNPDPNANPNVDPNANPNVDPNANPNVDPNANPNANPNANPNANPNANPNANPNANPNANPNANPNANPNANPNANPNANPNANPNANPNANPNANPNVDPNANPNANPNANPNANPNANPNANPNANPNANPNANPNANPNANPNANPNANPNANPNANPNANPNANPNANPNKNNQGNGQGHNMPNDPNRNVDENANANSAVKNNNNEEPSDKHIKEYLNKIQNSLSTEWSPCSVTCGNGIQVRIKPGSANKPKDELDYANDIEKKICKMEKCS

B1: CL-509930 (antibody, V domains shown)
VH: QVQLVESGGGVVQPGRSLRLSCAASGFTFSSYGMHWVRQAPGKGLEWVAIIWHDGSNKYYADSVKGRFTISRDNSKNTLYLQMNSLRAEDTAVYYCARDYSSFYFDYWGQGTLVTVSS
VL: not shown
modifications: peptides N-terminally acetylated and C-terminally amidated
B1 had a binding score of 1.99.

B2: Ky315 (antibody, V domains shown)
VH: QVQLVESGGGVVQPGRSLRLSCAASGFTLSNYGVHWVRQAPGTGLEWVALIWYDGSNKFYADSVKGRFTISRDNSMDIVYLQMNNLRAEDTALYYCVRPGIAAAGSNYYAMDVWGQGTAVTVSS
VL: EIVMTQSPATLSMSPGERATLSCRASQSVGSDLAWFQQKPGQAPRLLIYGAFTRATGIPARFSGSGSGSEFTLTISSLQSEDFAVYYCQQYNRWWTFGQGTKVEMK
modifications: peptides N-terminally acetylated and C-terminally amidated
The molecule B2 gave a binding score of 2.7.

B3: CL-511905 (antibody, V domains shown)
VH: QVQLVESGGGVVQPGRSLRLSCAASGFTFSGSGMHWVRQAPGRGLEWVAIIWYDGSHKYYVDSVQGRFIISRDNSKNTLYLEMNSLRVEDTAVYYCVRAYPSGSSNDKYGMDVWGQGTTVTVSS
VL: not shown
modifications: peptides N-terminally acetylated and C-terminally amidated
In turn, B3 registered a binding score of 2.61.

B4: CL-513094 (antibody, V domains shown)
VH: B3 VH with S85N
VL: not shown
modifications: peptides N-terminally acetylated and C-terminally amidated
The molecule B4 gave a binding score of 2.14.

B5: CL-462911 (antibody, V domains shown)
VH: QVHLVESGGGVVQPGRSLTLSCAASGFTFSSCGMHWVRQAPGKGLEWLAVIWYDGSNKYYADSVKGRFTISRDNSKNTLYLQMNSLRAEDTAVYYCARDGGYVRDYYYGMDVWGQGTTVTVSS
VL: not shown
modifications: peptides N-terminally acetylated and C-terminally amidated
Regarding B5, the binding score turned out to be 1.4.

B6: CL-508731 (antibody, V domains shown)
VH: QVQLVESGGGVVQPGRSLRLSCVASGFTFSNNGMHWVRQAPGKGLEWVAIIWHDGSNKFYAESVRGRFTISRDNSNNTLYLQMNSLRAEDTAVYYCARDRMFGSGSWNYFDPWGQGTLVTVSS
VL: EIVLTQSPATLSLSPGERATLSCRASQSISTYLAWYQQKPGQAPRLLIYDASNRATGIPARFSGSGSGTDFTLTISSLEPEDFAVYYCQQRSYWWTFGQGTKVEIK
modifications: peptides N-terminally acetylated and C-terminally amidated
B6 showed a binding score of 2.31.

B7: CL-509993 (antibody, V domains shown)
VH: B6 VH with H53Y, F59Y, E62D, R65K, S106T
VL: B6 VL with I29V, S30T, Y93N
modifications: peptides N-terminally acetylated and C-terminally amidated
B7 yielded a binding score of 2.15.

B8: CL-512871 (antibody, V domains shown)
VH: QVLLVESGGGVVQPGRSLRLSCAASGFTFSNYGMHWVRQAPGKGLEWVALIRYDGINKFYADSVKGRFTISRDNSENTLYMQINSLRAEDTAMYYCAKAYNTSSDYYYGMDVWGQGTTVTVSS
VL: DIQMTQSPSTLSASVGDRVTITCRASQSISTWLAWYQQKPGKAPKLLIYKASRLESGVPSRFSGSGSGTEFTLTISSLQPDDLATYYCQQFNSYWTFGQGTKVEIR
modifications: peptides N-terminally acetylated and C-terminally amidated
B8 registered a binding score of 2.21.

B9: CL-510020 (antibody, V domains shown)
VH: QVQLVESGGGVVQPGRSLRLSCAASGFTFSSFGMYWVRQAPGKGLEWVALIWYDGSNQYYADSVKGRFTISRDNSKNTLYLQMNSLRAEDTAVYYCARAGYFYGSGSPLDYWGQGTLVTVPS
VL: B8 VL with R18G, T31S, K50M, R53S, L83F, F91Y, N92Y, S93N, R106K
modifications: peptides N-terminally acetylated and C-terminally amidated
Turning to B9, the binding score came out at 2.45.

B10: CL-532151 (antibody, V domains shown)
VH: QVQLVESGGGVVQPGGSLRLSCAASGFTFSGSGMHWVRHAPGKGLEWVAIIWYDGSNKFYADSVKGRFTISRDNSRNTLYLQMNSLRAEDTAVYYCARAYVSGNYGDKYGMDVWGQGTTVTVSS
VL: B8 VL with T31N, Y36F, R53S, S76N, L83F, Y87F, F91Y, S93Y, R106K
modifications: peptides N-terminally acetylated and C-terminally amidated
For B10, the binding score worked out at 2.53.

B11: CL-444691 (antibody, V domains shown)
VH: QVQLVESGGGVVQPGRSLRLSCAASGFTFSNYGMHWVRQAPGKGLEWVAVIWYDGSNKFYADSVKGRFTISRDNSKNTLYLQMNSLRAEDTAVYYCARDGGYNKNSGSYGWFDPWGQGTLVTVSS
VL: B8 VL with I29V, R53S, L83F, F91Y, W95F, K102R, V103L, R106K
modifications: peptides N-terminally acetylated and C-terminally amidated
B11 had a binding score of 2.3.

B12: Ky15.2 (antibody, V domains shown)
VH: QVLLVESGGGVVQPGTSLRLSCVASGFSFSTYGMHWVRQSPGKGLEWVAIIWYDGGNKFYADSVQGRFTVSRDNSKNTLYLQMNSLRAEDTAVYYCAKAYRTSLDKKYGMDVWGQGTTVTVSS
VL: B8 VL with S30A, T31S, R53S, Q79H, L83F, Y87F, N92T, R106K
modifications: peptides N-terminally acetylated and C-terminally amidated
B12 returned a binding score of 2.4.

B13: CL-513809 (antibody, V domains shown)
VH: QVQLVESGGGVVQPGRSLRLSCAASGFIFSNYGMYWVRQTPDKGLEWVALIWYDGNNKFYSDSVKGRFTVSRDNSKNTLYLQMNSLRDEDTALYYCARAGYFYGSGSSLDKWGQGTLVTVSS
VL: B8 VL with T20S, T31I, R53S, L83F, F91Y, R106K
modifications: peptides N-terminally acetylated and C-terminally amidated
For B13, the binding score was determined as 2.34.

B14: CL-438096 (antibody, V domains shown)
VH: QVVLVESGGGVVQPGRSLRLSCEASGFIFSSRGMHWVRQTPGKGLEWVAIIWYDGSNKFYADSVKGRFTISRDNSKNTLYLQMNSLRAEDTAVYYCARSYRTSLDKKYGMDVWGQGTTVTVSS
VL: B8 VL with T31S, R53S, Q79H, L83F, Y87F, F91Y, R106K
modifications: peptides N-terminally acetylated and C-terminally amidated
B14 showed a binding score of 2.6.

B15: CL-510418 (antibody, V domains shown)
VH: QVQLVESGGGVVQPGQSLRLSCEASGFTFSNYGMHWVRQAPVKGLEWVAIIWFDGSYKYYADSVKGRFTVSRDNSKNTLYLQMDSLRAEDTAVYYCARARKGQRSDYYGSETSYTFDNWGQGTLVTVSS
VL: B8 VL with S30N, T31S, L46F, R53I, V58I, L83F, F91Y, R106K
modifications: peptides N-terminally acetylated and C-terminally amidated
For the molecule B15, the binding score was 2.46.

B16: CL-514174 (antibody, V domains shown)
VH: B10 VH with G16R, A23V, H39Q, A40S, K65Q, R76K, A88V, A92G, V101L
VL: B8 VL with T31S, Y36F, R53S, S76N, L83F, Y87F, F91Y, S93Y, R106K
modifications: peptides N-terminally acetylated and C-terminally amidated
Take B16: the binding score amounted to 2.12.

B17: CL-510453 (antibody, V domains shown)
VH: QVQLVESGGGVVQPGRSLRLSCAASGFTFSSYGMHWVRQAPDKGLEWVAIIWYDGSKKYYADSVKGRFTVSRDNSKNTLYLQMNSLRAEDTAVFYCARSFDYESGGFYSFDYWGQGTLVSVSS
VL: B8 VL with T31S, K50R, R53S, E55A, L83F, F91Y, I105F, R106K
modifications: peptides N-terminally acetylated and C-terminally amidated
In the case of B17, the binding score was found to be 2.07.

B18: CL-449007 (antibody, V domains shown)
VH: QVQVVESGGGVVQPGRSLRLSCAASGFTFSNYGMHWVRQAPGKGLEWVAIIWYDGSHKFYANSVKGRFTISRDNSKNTLFLQMNSLRAEDTAVYYCARVGNGNSDWTDAFDIWGQGTMVTVSS
VL: B8 VL with S30N, T31S, R53S, L83F, F91Y, S93T, R106K
modifications: peptides N-terminally acetylated and C-terminally amidated
B18 came in with a binding score of 2.4.

B19: CL-510373 (antibody, V domains shown)
VH: QVQLVESGGGVVQPGRSLKLSCAASGFTFSSYGMHWVRQAPGRGLEWVSIIWYDGSNKFYSDSVQGRFTISRDDSKNTLYLQMNSLRAEDTAMYYCAMVANYTISSGAFDIWGHGTMVTVSS
VL: B8 VL with T31N, P40S, R53S, L83F, Y87F, F91Y, N92K, S93T, R106K
modifications: peptides N-terminally acetylated and C-terminally amidated
With B19, the binding score worked out at 2.37.

B20: CL-444469 (antibody, V domains shown)
VH: QVQLVESGGGVVQPGRSLRVSCEVSGLTFSNYGMHWVRQAPGKRLEWVAIIWYDGSNKYYADSVKGRFTISRDNSKNTLYLQMNSLRAEDTAVYYCARSYGSGSRGDYYGMDVWGQGTTVTVSS
VL: B8 VL with T31S, Y36F, R53S, L83F, F91Y, N92Y, R106K
modifications: peptides N-terminally acetylated and C-terminally amidated
B20: the binding score worked out at 2.4.

B21: CL-449869 (antibody, V domains shown)
VH: QVQLVESGGGAVQPGRSLRLSCAASGFTFSYNGMHWVRQAPGKGLEWVAIIWYDGSNKFYADSVKGRFTISRDNSKDTLYLEMNSLRAEDTAIYYCARAWNYDDKKYSMDVWGQGTTVTVSS
VL: B8 VL with T31S, R53S, L83F, F91Y, S93Y, Y94F
modifications: peptides N-terminally acetylated and C-terminally amidated
As for B21, the binding score stood at 2.2.

B22: CL-460406 (antibody, V domains shown)
VH: QIQLVESGGGVVQPGRSLRLSCAASGFTFSNSGMHWIRQAPGKGLEWVTIIWYDGSNKYYADSVKGRFTISRDNSKNTLYLQMNSLRAEDTAIYYCARAYSSSSDDYYGMDVWGQGTTVTVSS
VL: B8 VL with T31S, R53S, E70D, L83F, N92Y, S93N, R106T
modifications: peptides N-terminally acetylated and C-terminally amidated
As to B22, the binding score was found to be 2.3.

B23: CL-437899 (antibody, V domains shown)
VH: QEQLVESGGGVVQPGRSLRLSCEVSGFTFSNHGLHWVRQAPGKGLEWVAIIWYDGSNKFYAESVKGRFTISRDNSKNRMYLEMNSLRVEDSAVYYCVRAYSRSSSDYKYGMDVWGQGTTVTVSS
VL: DIQMTQSPSTLSASVGDRVIITCRASQSISSWLAWYQQRPGKAPELLIYKASSLETGVPSRFSGSGSGTEFTLTISSLQPDDFATYFCQQYSSYWTFGQGTKVEIK
modifications: peptides N-terminally acetylated and C-terminally amidated
Take B23: the binding score turned out to be 2.4.

B24: Ky224 (antibody, V domains shown)
VH: QVQLVESGGGVVQPGRSLRLSCAASGFTFSVYGMHWVRQAPGKGLEWVAVIWYDGSNKIYADSVKGRFTISRDNSKNTLYLQMDSLSAADTAVYYCAKIGSSSFDYWGQGTLVIVSS
VL: DIVMTQTPLSSPVTLGQPASISCRSSQSLVHSNGITYLSWLQQRPGQPPRLLLYEISNRFSGVPDRFSGSGTGTDFTLKISRVEAEDVGVYYCMQTTQFPITFGQGTRLEIK
modifications: peptides N-terminally acetylated and C-terminally amidated
The molecule B24 yielded a binding score of 2.2.

B25: CL-513083 (antibody, V domains shown)
VH: QVQLVESGGGVVQPGRSLRLSCAASGFTFSNYGMHWVRQAPGRGLEWVAIIWYDGSNKYYEDSVKGRFTISRDNSKNTLYLQMNSLRAEDTAVYYCARAQWLDQRHYHYTMDVWGQGTTVTVSS
VL: not shown
modifications: peptides N-terminally acetylated and C-terminally amidated
B25 showed a binding score of 2.24.
